Data from publication PMC10220053.

These substances were tested against Eaf3^MRG–Rco1^PHD1–SID complex (S. cerevisiae) (UniProt Q12432) (assay: ITC; H3 1–12 peptides with the Eaf3^MRG–Rco1^PHD1–SID complex or with Rco1^PHD1 alone).
Sequence of Eaf3^MRG–Rco1^PHD1–SID complex (S. cerevisiae) (Q12432 218-401, chain 1 of 2): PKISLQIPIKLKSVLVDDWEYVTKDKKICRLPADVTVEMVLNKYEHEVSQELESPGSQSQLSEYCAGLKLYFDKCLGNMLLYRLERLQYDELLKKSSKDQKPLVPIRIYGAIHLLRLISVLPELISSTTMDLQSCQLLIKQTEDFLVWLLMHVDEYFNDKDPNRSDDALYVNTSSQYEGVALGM
Sequence of Eaf3^MRG–Rco1^PHD1–SID complex (S. cerevisiae) (Q04779 240-376, chain 2 of 2, further chain): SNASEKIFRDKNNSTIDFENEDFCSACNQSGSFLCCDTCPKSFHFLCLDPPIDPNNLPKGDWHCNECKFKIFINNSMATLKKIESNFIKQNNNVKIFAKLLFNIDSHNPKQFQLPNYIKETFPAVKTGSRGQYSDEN
“H3K4me0^1–12 peptide (from UniProt P61830 2-13)” gave a Kd of 22 µM.
“H3K4me2^1–12 peptide (from UniProt P61830 2-13)” gave a Kd of 360 µM.
For “H3K4me1^1–12 peptide (from UniProt P61830 2-13)”, the Kd was 65 µM.
